Test results as given in publication PMC11996864, “A small-molecule inhibitor of BCL10-MALT1 interaction abrogates progression of diffuse large B cell lymphoma” (The Journal of Clinical Investigation, 2025).
Values joined by “and” are separate entries in the source; they are usually repeats but may differ in a detail not shown here. Equal values may be shown once.

T1: BCL10 (Homo sapiens, UniProt O95999)
T1 construct: Full-length GST-BCL10 (Abnova, catalog H00008915-P01) was immobilized onto a gold sensor chip surface; GST (N); purchased Abnova H00008915-P01
T1 sequence (O95999 1-233): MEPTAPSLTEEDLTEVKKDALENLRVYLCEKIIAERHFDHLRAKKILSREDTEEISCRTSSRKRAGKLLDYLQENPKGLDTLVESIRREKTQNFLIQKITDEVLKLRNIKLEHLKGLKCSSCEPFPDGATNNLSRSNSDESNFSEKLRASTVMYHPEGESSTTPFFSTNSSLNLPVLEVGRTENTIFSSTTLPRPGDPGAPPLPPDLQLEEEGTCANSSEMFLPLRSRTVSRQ

T2: Full-length GST-BCL10 (UniProt O95999 1-233)
T2 construct: BCL10, full length; also called immobilized BCL10; source: bought: Abnova, catalog H00008915-P01
T2 sequence (looked up): T1 sequence (O95999 1-233)

B1: MALT1(DD): Recombinant human MALT1 fragment, death domain only (aa 29-124) (protein, UniProt Q9UDY8 29-124, looked up, fragment)
chain: TLNRLREPLLRRLSELLDQAPEGRGWRRLAELAGSRGRLRLSCLDLEQCSLKVLEPEGSPSLCLLKLMGEKGCTVTELSDFLQAMEHTEVLQLLSP
B2: MALT1(Ig1-2) purified protein (domain or fragment)
chain: KITVNPESKAVLAGQFVKLCCRATGHPFVQYQWFKMNKEIPNGNTSELIFNAVHVKDAGFYVCRVNNNFTFEFSQWSQLDVCDIPESFQRSVDGVSESKLQICVEPTSQKLMPGSTLVLQCVAVGSPIPHYQWFKNELPLTHETKKLYMVPYVDLEHQGTYWCHVYNDRDSQDSKKVEIII
notes: MALT1, tandem Ig-like domains Ig1 and Ig2; PDB 3K0W is the published MALT1(Ig1-2) crystal structure, whose limits may differ from this construct; Host, tags and limits are in Supplemental Methods; source: purified protein (purification in Supplemental Methods)
B3: MALT1(DD+Ig1-2): Recombinant human MALT1 fragment, death domain plus Ig1-2 domains (aa 1-326) (protein, UniProt Q9UDY8 1-326, looked up, fragment)
chain: MSLLGDPLQALPPSAAPTGPLLAPPAGATLNRLREPLLRRLSELLDQAPEGRGWRRLAELAGSRGRLRLSCLDLEQCSLKVLEPEGSPSLCLLKLMGEKGCTVTELSDFLQAMEHTEVLQLLSPPGIKITVNPESKAVLAGQFVKLCCRATGHPFVQYQWFKMNKEIPNGNTSELIFNAVHVKDAGFYVCRVNNNFTFEFSQWSQLDVCDIPESFQRSVDGVSESKLQICVEPTSQKLMPGSTLVLQCVAVGSPIPHYQWFKNELPLTHETKKLYMVPYVDLEHQGTYWCHVYNDRDSQDSKKVEIIIGRTDEAVECTEDELNNLG
B4: MALT1(DD+Ig1-2) purified protein (domain or fragment)
chain: MSLLGDPLQALPPSAAPTGPLLAPPAGATLNRLREPLLRRLSELLDQAPEGRGWRRLAELAGSRGRLRLSCLDLEQCSLKVLEPEGSPSLCLLKLMGEKGCTVTELSDFLQAMEHTEVLQLLSPPGIKITVNPESKAVLAGQFVKLCCRATGHPFVQYQWFKMNKEIPNGNTSELIFNAVHVKDAGFYVCRVNNNFTFEFSQWSQLDVCDIPESFQRSVDGVSESKLQICVEPTSQKLMPGSTLVLQCVAVGSPIPHYQWFKNELPLTHETKKLYMVPYVDLEHQGTYWCHVYNDRDSQDSKKVEIIIDELNNLGHPDNKEQTTDQ
modifications: Printed as aa 1-326, MBP tag removed by TEV. Taken in isoform B numbering (lacks 309-319): the paper uses isoform B (C-terminus at 813), and the 3K0W construct, 199 residues after its tag and ending …

Legend:
BCL10 [1] = molecular target: T1, BCL10; assay: ELISA binding of recombinant MALT1 or GRK2 to immobilized BCL10; details: protein added to immobilized BCL10
Procedure: ELISA-based protein-protein interaction assay. On a high-binding 96-well ELISA microplate (Greiner Cat# 655061), 100 ng of His-tagged recombinant human full-length BCL10 protein (Novus Cat# NBP1-99064) or in 100 µl PBS was allowed to adhere overnight at 4°C. The plate was blocked with 5% BSA in PBS for 1 hour at room temperature. After washing twice with PBS-T, a mixture of 100 ng of GST-tagged recombinant human full-length MALT1 protein (Novus Biologicals Cat# H00010892-P01) and compound that was preincubated for 1 hour in 100 μl PBS was added to the plate for 1 hour at room temperature. After washing three times with PBS-T, anti-MALT1 antibody (Cell Signaling Technology, Cat# 2494) in 5% BSA in PBS was added at 1:1000 dilution for 1 hour at room temperature. After washing three times with PBS-T, HRP-conjugated secondary antibody in 5% BSA in PBS was added at 1:5000 dilution for 1 hour at room temperature. After washing three times with PBS-T, 100 µl of 3,3’,5,5’-tetramethylbenzidine (TMB) substrate solution (Thermo Scientific, Cat# 34028) was added for up to 15 minutes, and 100 µl of 2 M sulfuric acid was added to stop the reaction. The plate was read at 450 nm using a spectrophotometer (Molecular Devices SpectraMax i3). […]

BCL10 [2] = molecular target: T1, BCL10; assay: SPR binding of MALT1 protein fragments to immobilized BCL10
Procedure: Surface plasmon resonance (SPR) experiments were performed on a Biacore 2000 system (Cytiva). Full-length GST-BCL10 (Abnova, catalog H00008915-P01) was immobilized onto a gold sensor chip surface, and analyte solution containing MALT1(DD+Ig1-2), MALT1(DD), or MALT1(Ig1-2) purified protein was injected over the surface through a series of flow cells (see Supplemental Methods for details on protein purification). The binding kinetic parameters were obtained using the Langmuir model for global fitting with 1:1 binding ratio where one ligand molecule interacts with one analyte molecule. The equilibrium dissociation constant (KD) of M1i-124 to full-length GST-tagged MALT1 (Novus, catalog H00010892-P01) protein was determined by Creative Biolabs using Biacore T200. Full-length MALT1 protein was immobilized onto CM5 sensor chip surface, and M1i-124 was injected at concentrations of 0, 12.5, 25, 50, 100, and 200 μM. The steady-state affinity model was used to determine the KD.
Supplemental Materials and Methods
Cell lines and reagents. The DLBCL cell lines OCI-Ly1, OCI-Ly3, and OCI-Ly7 were provided by Mark D. Minden (University Health Network, Toronto, Ontario, Canada) , TMD8 cell line was provided by Louis Staudt (National Cancer Institute, NIH, Bethesda Maryland), and the BJAB cell line was provided by Mathijs Baens (Katholieke Universiteit Leuven, Leuven, Belgium). […]

Full-length GST-BCL10 = molecular target: T2, Full-length GST-BCL10; assay: SPR; Biacore 2000; full-length GST-BCL10 immobilised on a gold sensor chip surface, purified MALT1 fragments injected as analyte; Langmuir model, global fitting, 1:1 binding; details: both partners purified

Molecule	OD450 (BCL10 [1])	Kd (Full-length GST-BCL10) [nM]	also measured
BCL10 + MALT1	0.851 and 0.825	–	–
BCL10 + GRK2	0.226 and 0.156	–	–
B1	–	–	binding to BCL10 (BCL10 [2]; result in words): no detectable binding
B2	–	29	–
B3	–	–	Kd (BCL10 [2]; MALT1 fragment over immobilized BCL10): 25 nM
B4	–	25	–
